{
  "source": "patent US20210122826A1",
  "about": "(MIT, published 2021)",
  "binders": {"B1": {"name": "KW9.3.3 (antibody, V domains shown)", "VH": "EVQLVESGGGLVQPGGSLRLSCAASGFTFSSYAMSWVRQAPGKGLEWVSAISGSGGRTYYADSVKGRFTISRDNSKNTLYLQMNSLRAEDTAMYYCARGPGYMYLYGDSFFEYWGQGTLVTVSS", "VL": "DIQMAQSPSSLSASVGDRVTITCRASQGISSYLNWYQQKPGKAPKLLIYAASSLQSGVPSRFSGSGYGTDFTLTISSLQPEDFATYYCQQSYSTPLTFGQGTKVEIK"}},
  "test_in_all_cases": "flow, Jurkat, 100 nM Ab",
  "key": {"Human CD209": {"molecular_target": "T1, Human CD209 (human, UniProt Q9NNX6 1-404)", "T1 construct": "also called hCD209", "T1 sequence": "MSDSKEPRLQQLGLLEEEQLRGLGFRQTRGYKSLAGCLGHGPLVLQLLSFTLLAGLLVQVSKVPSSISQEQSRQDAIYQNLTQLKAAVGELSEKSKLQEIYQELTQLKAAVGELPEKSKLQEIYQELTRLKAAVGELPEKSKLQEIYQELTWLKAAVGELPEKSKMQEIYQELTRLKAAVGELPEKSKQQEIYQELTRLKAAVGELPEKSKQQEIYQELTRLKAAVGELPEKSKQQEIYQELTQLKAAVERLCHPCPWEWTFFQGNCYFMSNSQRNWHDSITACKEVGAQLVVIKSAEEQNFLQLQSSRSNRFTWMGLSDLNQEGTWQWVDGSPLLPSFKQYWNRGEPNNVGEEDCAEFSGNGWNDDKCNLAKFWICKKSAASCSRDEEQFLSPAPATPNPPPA"}, "Human Clec5A": {"molecular_target": "T2, Human Clec5A (human, UniProt Q9NY25 1-188)", "T2 construct": "also called hClec5A", "T2 sequence": "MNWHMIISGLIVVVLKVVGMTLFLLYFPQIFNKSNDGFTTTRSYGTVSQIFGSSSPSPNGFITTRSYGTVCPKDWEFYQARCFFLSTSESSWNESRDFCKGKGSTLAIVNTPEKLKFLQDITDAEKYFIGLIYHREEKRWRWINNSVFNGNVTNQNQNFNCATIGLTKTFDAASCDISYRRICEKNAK"}, "Human Clec7A": {"molecular_target": "T3, Human Clec7A (human, UniProt Q9BXN2 1-247)", "T3 construct": "also called hClec7A", "T3 sequence": "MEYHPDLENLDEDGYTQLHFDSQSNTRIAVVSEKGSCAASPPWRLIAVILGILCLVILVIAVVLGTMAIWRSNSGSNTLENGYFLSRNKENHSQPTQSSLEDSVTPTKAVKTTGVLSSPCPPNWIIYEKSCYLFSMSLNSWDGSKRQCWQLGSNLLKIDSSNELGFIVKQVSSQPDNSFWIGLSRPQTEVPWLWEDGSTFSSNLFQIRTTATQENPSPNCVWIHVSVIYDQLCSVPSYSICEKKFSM"}, "Human Clec9A": {"molecular_target": "T4, Human Clec9A (human, UniProt Q6UXN8 1-241)", "T4 construct": "also called hClec9A", "T4 sequence (Q6UXN8 whole entry)": "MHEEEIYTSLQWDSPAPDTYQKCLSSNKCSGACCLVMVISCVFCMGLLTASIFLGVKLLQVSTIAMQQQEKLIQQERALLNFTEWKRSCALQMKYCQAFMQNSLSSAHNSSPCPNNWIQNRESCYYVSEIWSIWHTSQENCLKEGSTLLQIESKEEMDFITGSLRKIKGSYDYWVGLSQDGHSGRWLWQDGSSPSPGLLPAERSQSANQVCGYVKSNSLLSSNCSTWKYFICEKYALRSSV"}, "human CD161": {"molecular_target": "T5, human CD161 (human, UniProt Q12918 1-225)", "T5 construct": "UniProt Q12918; also called hCD161; KLRB1"}, "Human KLRF2": {"molecular_target": "T6, Human KLRF2 (human, UniProt D3W0D1 1-207)", "T6 construct": "also called hKLRF2", "T6 sequence": "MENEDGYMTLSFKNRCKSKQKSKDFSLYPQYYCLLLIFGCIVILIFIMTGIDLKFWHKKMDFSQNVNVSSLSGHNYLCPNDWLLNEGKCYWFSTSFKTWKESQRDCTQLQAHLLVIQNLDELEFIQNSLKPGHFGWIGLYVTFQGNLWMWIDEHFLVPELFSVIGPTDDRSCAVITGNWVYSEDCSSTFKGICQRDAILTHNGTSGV"}, "Human KLRF1": {"molecular_target": "T7, Human KLRF1 (human, UniProt Q9NZS2 1-231)", "T7 construct": "also called hKLRF1", "T7 sequence": "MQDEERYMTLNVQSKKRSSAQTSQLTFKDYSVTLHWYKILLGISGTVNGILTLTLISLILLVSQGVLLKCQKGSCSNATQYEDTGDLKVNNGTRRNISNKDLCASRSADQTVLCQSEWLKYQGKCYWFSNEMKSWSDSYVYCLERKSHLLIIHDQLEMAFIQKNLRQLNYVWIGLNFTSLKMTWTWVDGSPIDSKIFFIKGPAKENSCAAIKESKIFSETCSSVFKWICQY"}, "Human KLRG1": {"molecular_target": "T8, Human KLRG1 (human, UniProt Q96E93 1-195)", "T8 construct": "also called hKLRG1", "T8 sequence": "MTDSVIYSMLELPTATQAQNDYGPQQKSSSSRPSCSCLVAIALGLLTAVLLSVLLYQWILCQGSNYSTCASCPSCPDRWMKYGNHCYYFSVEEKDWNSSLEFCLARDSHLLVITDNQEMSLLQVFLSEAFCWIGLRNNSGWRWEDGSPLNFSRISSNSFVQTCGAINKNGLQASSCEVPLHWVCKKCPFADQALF"}, "Human OLR1": {"molecular_target": "T9, Human OLR1 (human, UniProt P78380 1-273)", "T9 construct": "also called hOLR1"}, "Human CD94": {"molecular_target": "T10, Human CD94 (human, UniProt Q13241 1-179)", "T10 construct": "also called hCD94", "T10 sequence": "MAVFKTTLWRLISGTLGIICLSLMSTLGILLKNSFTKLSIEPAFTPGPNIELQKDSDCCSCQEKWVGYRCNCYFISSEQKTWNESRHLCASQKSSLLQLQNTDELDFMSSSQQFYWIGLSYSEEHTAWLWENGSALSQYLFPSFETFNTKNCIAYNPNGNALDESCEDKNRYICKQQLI"}, "Human Clec10A": {"molecular_target": "T11, Human Clec10A (human, UniProt Q8IUN9 1-316)", "T11 construct": "also called hClec10A", "T11 sequence": "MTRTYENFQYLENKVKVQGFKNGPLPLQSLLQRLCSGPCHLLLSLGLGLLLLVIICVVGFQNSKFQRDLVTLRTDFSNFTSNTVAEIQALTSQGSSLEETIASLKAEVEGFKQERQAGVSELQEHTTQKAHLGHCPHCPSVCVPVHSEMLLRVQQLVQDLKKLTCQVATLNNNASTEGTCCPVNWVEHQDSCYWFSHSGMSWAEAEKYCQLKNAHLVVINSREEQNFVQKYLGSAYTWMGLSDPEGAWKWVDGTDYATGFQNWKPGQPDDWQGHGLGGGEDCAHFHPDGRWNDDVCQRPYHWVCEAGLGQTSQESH"}, "Human Clec12B": {"molecular_target": "T12, Human Clec12B (human, UniProt Q2HXU8 1-276)", "T12 construct": "also called hClec12B", "T12 sequence": "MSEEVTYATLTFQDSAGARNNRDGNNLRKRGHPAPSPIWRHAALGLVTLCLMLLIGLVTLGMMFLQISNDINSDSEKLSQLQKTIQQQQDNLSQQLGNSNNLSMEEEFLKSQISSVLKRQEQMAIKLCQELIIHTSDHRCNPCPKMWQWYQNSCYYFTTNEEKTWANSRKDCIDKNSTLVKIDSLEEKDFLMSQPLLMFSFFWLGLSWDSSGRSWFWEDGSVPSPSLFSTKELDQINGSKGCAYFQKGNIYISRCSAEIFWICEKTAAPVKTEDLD"}},
  "data": [
    {"binder": "B1", "values": [
      {"measurement": "MFI normalized to WT", "setting": "Human CD209", "result": 0.81},
      {"measurement": "MFI normalized to WT", "setting": "Human Clec5A", "result": 0.93},
      {"measurement": "MFI normalized to WT", "setting": "Human Clec7A", "result": 1.03},
      {"measurement": "MFI normalized to WT", "setting": "Human Clec9A", "result": 0.94},
      {"measurement": "MFI normalized to WT", "setting": "human CD161", "result": 150},
      {"measurement": "MFI normalized to WT", "setting": "Human KLRF2", "result": 0.9},
      {"measurement": "MFI normalized to WT", "setting": "Human KLRF1", "result": 0.8},
      {"measurement": "MFI normalized to WT", "setting": "Human KLRG1", "result": 0.93},
      {"measurement": "MFI normalized to WT", "setting": "Human OLR1", "result": 0.9},
      {"measurement": "MFI normalized to WT", "setting": "Human CD94", "result": 0.84},
      {"measurement": "MFI normalized to WT", "setting": "Human Clec10A", "result": 0.86},
      {"measurement": "MFI normalized to WT", "setting": "Human Clec12B", "result": 0.94}
    ]}
  ]
}
